From the RNAGym collection of RNA variant scans (doi:10.1093/molbev/msab373)

B1: Azoarcus group I ribozyme (parent)
chain: GUGCCUUGCGCCGGGAAACCACGCAAGGGAUGGUGUCAAAUUCGGCGAAACCUAAGCGCCCGCCCGGGCGUAUGGCAACGCCGAGCCAAGCUUCGGCGCCUGCGCCGAUGAAGGUGUAGAGACUAGACGGCACCCACCUAAGGCAAACGCUAUGGUGAAGGCAUAGUCCAGGGAGUGGCGAAAGUCACACAAACCGG

Variants of: B1
Test: reverse-splicing fitness (ratio to wild type); higher = more active; in vitro selection; Mg2+ level not given
How it was run: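 An in vitro group I ribozyme library with randomized positions was T7-transcribed and gel-purified. In triplicate, 10 pmol RNA in EPPS pH 7.5 was reacted with 50 pmoles of a 30-nt RNA substrate for 1 h at 37 °C across several added MgCl2 levels (1–48 mM), then stopped with EDTA. Products were reverse transcribed from a substrate-complementary primer, PCR-amplified and sequenced (HiSeq 4000). Fitness is a variant's read proportion after selection over that before, normalised to wild type.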

Variant	reverse-splicing fitness
A111G A120U A145U C150A C169G U176G	0.00159
A111G A120U A145U C150A C169G U176A	0.00286
A111G A120U A145U C150A C169G U176C	0.00285
A111G A145G C150A C169U	0.0371
A111G A145G C150A C169A	0.0138
A111G A145G C150A C169G	0.0238
A111G A120U A145U C169U U176G	0.00399
A111G A120U A145U C169U U176C	0.032
A111G A120U A145U C169U U176A	0.0203
A111G A120U A145G U176G	0.124
A111G A120U A145G U176C	0.386
A111G A120U A145G U176A	0.344
A111G A145C C169A U176A	0.0126
A111G A145C C169A U176C	0.0139
A111G A145C C169A U176G	0.00444
A111G A145C C150A C169U U176C	0.0113
A111G A145C C150A C169U U176A	0.0152
A111G A145C C150A C169U U176G	0.00473
A111G A145G C169G U176A	0.0326
A111G A145G C169G U176G	0.00638
A111G A145G C169G U176C	0.0596

Variant	reverse-splicing fitness
A111G A145U C150U C169U	0.132
A111G A145U C150U C169A	0.0341
A111G A145U C150U C169G	0.0749
A111G A145C C150G C169G U176G	0.00435
A111G A145C C150G C169G U176A	0.00824
A111G A145C C150G C169G U176C	0.00562
A111G A145G C150A U176A	0.297
A111G A145G C150A U176C	0.32
A111G A145G C150A U176G	0.109
A111G A120U A145U C150U	0.584
A111G A120U A145U C150G	0.105
A111G A120U A145U C150A	0.0903
A111G A145G C150G C169U	0.0298
A111G A145G C150G C169G	0.0171
A111G A145G C150G C169A	0.0128
A111G A120U A145U C150U C169G U176G	0.00232
A111G A120U A145U C150U C169G U176A	0.00842
A111G A120U A145U C150U C169G U176C	0.009
A111G A145U C150A C169U U176G	0.00519
A111G A145U C150A C169U U176A	0.0162
A111G A145U C150A C169U U176C	0.0165

Variant	reverse-splicing fitness
A111G A145G C150G	0.364
A111G A145G C150A	0.517
A111G A145G C150U	0.941
A111G A145C C169U	0.188
A111G A145C C169G	0.116
A111G A145C C169A	0.0493
A111G A120U A145G C150U C169U U176G	0.00334
A111G A120U A145G C150U C169U U176C	0.0273
A111G A120U A145G C150U C169U U176A	0.0147
A111G A120U A145U C150U C169U	0.0793
A111G A120U A145U C150U C169A	0.00473
A111G A120U A145U C150U C169G	0.0547
A111G A145C C150A C169G	0.0111
A111G A145C C150A C169U	0.0168
A111G A145C C150A C169A	0.00859
A111G A145G C150G C169G U176A	0.00939
A111G A145G C150G C169G U176G	0.00506
A111G A145G C150G C169G U176C	0.00813
A111G A120U A145G C169U U176C	0.0414
A111G A120U A145G C169U U176G	0.0035
A111G A120U A145G C169U U176A	0.0227

Variant	reverse-splicing fitness
A111G A145C C150G C169A	0.0117
A111G A145C C150G C169G	0.018
A111G A145C C150G C169U	0.0255
A111G A145C U176A	0.718
A111G A145C U176C	0.78
A111G A145C U176G	0.448
A111G A120U A145U C150G C169A U176A	0.00281
A111G A120U A145U C150G C169A U176G	0.0022
A111G A120U A145U C150G C169A U176C	0.00355
A111G A145U C150U C169U U176G	0.00691
A111G A145U C150U C169U U176A	0.0375
A111G A145U C150U C169U U176C	0.056
A111G A145C C169U U176A	0.0432
A111G A145C C169U U176G	0.00859
A111G A145C C169U U176C	0.0591
A111G A145C C150A C169A U176G	0.00629
A111G A145C C150A C169A U176C	0.00515
A111G A145C C150A C169A U176A	0.0101
A111G A145C C150U U176C	0.491
A111G A145C C150U U176G	0.23
